# According to US12522635B2, “Amyloid peptide variants” (Loyola Marymount University, priority 2019, dated 2026):
# Columns and labels:
# [1] = AFM of peptide alone (self-aggregation / fibril formation); assay type: physicochemical; details: peptide alone, incubated 40 minutes at 37° C. with shaking
# Experimental: (§1) Samples labeled with hIAPP contained 40 μM hIAPP. The sample with pramlintide and hIAPP contained a 2:1 molar mixture (80 μM Pramlintide mixed with 40 μM hIAPP). The samples with raccoon IAPP and Pramlintide alone contained 40 μM of the indicated peptides. Each sample was incubated for 40 minutes at 37° C. with shaking; conditions known to promote hIAPP amyloid formation. All scans show raw data with no flattening and are […].
# (§2) Samples of hIAPP with or without animal IAPP were prepared as described in Example 1 and were then incubated with shaking at 37° C. for 40 minutes. After this incubation, 17 μL of each sample was deposited onto freshly cleaved mica. Samples were incubated for 5 minutes at room temperature before washing with 200 μL sterile water. After drying, the samples were scanned using an MFP-3D atomic force microscope (Asylum Research) set on A/C mode and a 240 m silicon cantilever (Olympus).
# (§3) Many of the animal IAPP variants are known to likewise form fibrils and yield amyloid-plaques when scanned via AFM. […] This is in spite of the fact that all of these IAPP peptides (except polar bear IAPP) are known to aggregate and form fibrils themselves under these or similar conditions
# [2] = test system: RIN-m cells; assay: MTT viability assay, peptide alone or mixed with hIAPP; assay type: cell-based; details: for toxicity of peptide to cells: peptide alone, MTT assay, pancreatic (RIN-m) cells; for rescue / protection of cells from hIAPP toxicity (words): hIAPP mixed with peptide 1:1, MTT assay
# Description: Cytoprotection can likewise be measured by a number of assays known to the art. One such assay is the MTT assay, which is a colorimetric assay for assessing cell metabolic activity. NAD(P)H-dependent cellular oxidoreductase enzymes in the cytosolic compartment of a cell reduces the tetrazolium dye MTT 3-(4,5-dimethylthiazol-2-yl)-2,5-diphenyltetrazolium bromide to an insoluble form, formazan, which has a purple color. The reduction of MTT (and other tetrazolium dyes) depends on the cellular metabolic activity, so a loss of color in the course of performing an MTT assay indicates low metabolic activity, and is thus an indicator of cell damage and death.
# To test cell viability, a MTT colorimetric assay measuring the conversion of yellow tetrazolium salt into purple formazan crystal catalyzed by a mitochondrial reductase was used. Cell viability studies were performed using RIN-m cells (ATCC, CRL-2057). An equal number of RIN-m cells were plated in triplicate and incubated overnight in 96-well plates. The next day, fresh RPMI-1640 with phenol red supplemented with 10% FBS was added to cells. Hexafluoroisopropanol (HFIP) was removed from each individual human and animal IAPP using a centrivap concentrator (LabOnco). All IAPP peptide samples were re-suspended in RPMI-1640 with 10% FBS. To ensure even re-suspension, each resulting IAPP-containing vial was scraped with a pipette tip six times and vortexed (Vortex Genie Mixer) for 15 seconds. The whole process, from drying each IAPP peptide to adding each IAPP peptide to the cells was uniform to ensure that each sample was incubated for an equal amount of time with each IAPP peptide. IAPP peptides were added to cells and incubated for 46 hours at 37° C. Post-incubation, the media in each well was replaced by fresh DMEM/F-12 without phenol red. MTT (3-(4,5-dimethyl-2-thiazolyl)-2,5-diphenyl-tetrazolium bromide) was added into each well and incubated at 37° C. for 2 hours. Formazan crystals, formed on the bottom of the wells, were re-suspended in solubilization buffer (20% SDS and 50% dimethylformamide). The absorbance in each well was taken at 570 nm using a Multiskan FC Microplate Photometer (Thermos Fisher Scientific). Media were obtained from ATCC. All incubations took place in a water jacketed incubator in 5% carbon dioxide at 37° C. (Shell Lab).
# The MTT viability assay was used to measure cell viability of RIN-m cells upon addition of hIAPP alone, the addition of each animal IAPP peptide alone, and hIAPP mixed with each animal IAPP peptide (results shown in FIG. 5). RIN-m cells alone were used as a control and set to 100% cell viability. […] Addition of raccoon IAPP to hIAPP increased the cell viability from 55% to an average of 72% (p=0.005705). Addition of chicken IAPP variant to hIAPP increased cell viability to an average of 76% (p=0.013556).
# [3] = molecular target: T1, human IAPP (hIAPP) (Homo sapiens, UniProt P10997); assay: Atomic force microscopy (AFM) of hIAPP fibril formation when mixed with IAPP peptides; assay type: biochemical; details: for inhibition of hIAPP fibril formation, AFM: 37 μM hIAPP and 75 μM peptide, 37° C. with shaking for 40 minutes
# T1 construct: This 37 amino acid polypeptide is co-secreted from pancreatic β-islet cells with insulin
# T1 sequence (P10997 34-70 limits assumed): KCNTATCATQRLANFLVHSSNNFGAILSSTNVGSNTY
# Experimental: as §1
# Each sample contained 37 μM hIAPP and 75 μM of the indicated peptide. Samples were incubated at 37° C. with shaking for 40 minutes. All scans show raw data with no flattening and are […].
# Each sample contained 37 μM hIAPP mixed with 37 μM of the indicated peptide. Samples were incubated at 37° C. with shaking for 30 minutes before depositing each sample onto freshly cleaved mica.
# as §2, §3
# [4] = molecular target: T1, human IAPP (hIAPP); assay: Thioflavin T binding assay of hIAPP aggregation when mixed with IAPP peptides; assay type: biochemical; details: for inhibition of hIAPP aggregation, thioflavin T binding: hIAPP mixed with peptide, incubated at 37° C. with shaking; for inhibition of hIAPP aggregation (summary statement): peptide mixed with hIAPP, no single assay (thioflavin T and AFM)
# Description: Any of a number of assays known to the art can be used to evaluate the ability of IAPP peptides to inhibit hIAPP aggregation and/or protect cells from hIAPP toxicity. Thioflavin T (ThT) binding is one such technique for identifying amyloid formation in real time. Human IAPP is known to bind thioflavin T during aggregation and amyloid formation, and upon binding to amyloid fibrils ThT will give a strong fluorescence signal at approximately 482 nm when excited at 450 nm. ThT fluorescence correlates linearly with amyloid concentration in a sample and therefore can be used to determine the amount of aggregation in a sample. This technique can therefore be used for identifying substances with amyloid-inhibiting potential when such substances are mixed with human IAPP under conditions known to result in the formation of aggregates by hIAPP. Determining the extent of aggregation can also be determined using other techniques, such as Atomic Force Microscopy (AFM), which can provide information about particle dimensions, shape, and substructure with nanometer resolution. In the foregoing assays and others that can be used by one of skill in the art, significant inhibition can be determined using a t-test by measuring the difference between hIAPP and hIAPP combined with an IAPP peptide.
# To identify IAPP peptides having inhibitory potential against hIAPP aggregation, the peptides shown in FIG. 1 from a number of species (cow, degu, guinea pig, horse, pig, rat, and sheep[…]) were mixed with hIAPP at a 2:1 molar ratio of animal peptide to hIAPP and incubated under conditions known to promote hIAPP aggregation and fibril formation. IAPP alone, or hIAPP mixed with an animal IAPP, was pipetted into a glass tube and the HFIP was removed under speed-vacuum. The resulting peptide sample was dissolved in 20 mM Tris buffer pH 7.4.
# 37 μM human IAPP was mixed with 75 μM of each indicated animal IAPP. Aggregation was initiated by incubating samples at 37° C. with shaking at 200 rpm for 40 minutes. At indicated time points, a 17 μL aliquot of each sample was mixed with 663 μL of 50.0 μM thioflavin T in 20 mM Tris buffer (pH 7.4). Thioflavin T fluorescence emission was then recorded at 488 nm using a Hitachi F-7000 fluorescence spectrophotometer.
# After 40 minutes, these samples were monitored for their ability to bind thioflavin T (see FIG. 2) and their ability to form fibrils as identified with atomic force microscopy.
# Human IAPP (37 μM) was mixed with each of the indicated Weddell seal variants (at 75 μM) and incubated for 30 minutes at 37° C. with shaking at 200 rpm. The Weddell seal IAPP peptides were likewise subjected to atomic force microscopy as described in Example 2.
# Human IAPP was mixed with each of the indicated raccoon variants and incubated at 37° C. with shaking.
# Human IAPP was mixed with each of the indicated chicken variants and incubated at 37° C. with shaking. […] However, it was able to protect cells in MTT assays, so it is believed to inhibit formation of toxic oligomers while having a lesser effect on inhibiting the formation of fibers (which are less toxic and less able to bind ThT).
# Human IAPP was mixed with each of the indicated chicken variants and incubated at 37° C. with shaking.
Compound,"aggregation / fibril formation of peptide alone, AFM [1]","cell viability, peptide alone ([2]; 12.8 μM, RIN-m cells, 46 hours, cells alone set to 100%)","inhibition of hIAPP fibril formation, AFM [3]","inhibition of hIAPP aggregation, thioflavin T binding [4]",toxicity of peptide to cells [2],"inhibition of hIAPP fiber formation ([3]; FIG. 22: 37 μM hIAPP mixed with 37 μM peptide, 37° C. with shaking for 30 minutes)",rescue / protection of cells from hIAPP toxicity (words) [2],rescue / protection of cells from hIAPP toxicity (words) ([2]; listed as Rac-L26Y),inhibition of hIAPP aggregation (summary statement) [4]
"CC[C@H](C)[C@H](NC(=O)[C@H](C)NC(=O)CNC(=O)[C@H](Cc1ccccc1)NC(=O)[C@H](CC(N)=O)NC(=O)[C@H](CC(N)=O)NC(=O)[C@H](CO)NC(=O)[C@H](CO)NC(=O)[C@H](Cc1c[nH]cn1)NC(=O)[C@@H](NC(=O)[C@H](CC(C)C)NC(=O)[C@H](Cc1ccccc1)NC(=O)[C@H](CC(N)=O)NC(=O)[C@H](C)NC(=O)[C@H](CC(C)C)NC(=O)[C@H](CCCNC(=N)N)NC(=O)[C@H](CCC(N)=O)NC(=O)[C@@H](NC(=O)[C@H](C)NC(=O)[C@@H]1CSSC[C@H](NC(=O)[C@@H](N)CCCCN)C(=O)N[C@@H](CC(N)=O)C(=O)N[C@@H]([C@@H](C)O)C(=O)N[C@@H](C)C(=O)N[C@@H]([C@@H](C)O)C(=O)N1)[C@@H](C)O)C(C)C)C(=O)N[C@@H](CC(C)C)C(=O)N[C@@H](CO)C(=O)N[C@@H](CO)C(=O)N[C@H](C(=O)N[C@@H](CC(N)=O)C(=O)N[C@H](C(=O)NCC(=O)N[C@@H](CO)C(=O)N[C@@H](CC(N)=O)C(=O)N[C@H](C(=O)N[C@@H](Cc1ccc(O)cc1)C(N)=O)[C@@H](C)O)C(C)C)[C@@H](C)O [hIAPP, reference compound]",forms high-density fibrils,55+/−5%,–,–,–,–,–,–,–
KCNTATCATQRLANFLVHSSNNLGAILSPTNVGSNTY (KTATCATQRLANFLVHSSNNLGAILSPTNVGSNTY; Leptonychotes weddellii mutation) [WS_LP],–,–,strong inhibitors of hIAPP fiber formation,inhibited hIAPP aggregation,"toxic to cells, with and without addition of hIAPP",–,–,–,–
KCNTATCVTQRLANFLLRSSNNLGAIYSPTNVGSNTY (Procyon lotor mutation) [Rac_L26Y],–,–,–,inhibited hIAPP aggregation,minimal inherent toxicity,stood out for its ability to inhibit hIAPP fiber formation,improved cell viability in the presence of hIAPP,rescue cells from hIAPP toxicity,–
KCNTATCVTQRLADFLVRSSSNIGAIY (Gallus gallus truncation) [C1-27],–,–,did,inhibited hIAPP aggregation,–,–,rescued cells from hIAPP-induced cytotoxicity,–,–
KCNTATCVTQRLADFLVRSSSNIGAIYSP (Gallus gallus truncation) [C1-29],–,–,amyloid fibers were formed and did,inhibited hIAPP aggregation,–,–,rescued cells from hIAPP-induced cytotoxicity,–,–
KCNTATCVTQRLANFLLRSSNNLGAIL (Procyon lotor truncation) [R1-27],–,–,did,inhibited hIAPP aggregation,–,–,rescued cells from hIAPP-induced cytotoxicity,–,–
rat IAPP: naturally occurring IAPP peptide of rat origin (FIG. 1),–,–,either had no effect on hIAPP fibril formation or appeared to promote fibrils with hIAPP,–,improved effect on cell viability,–,not capable of protecting RIN-m cells from the toxic effects of hIAPP,–,failed to inhibit the aggregation of human IAPP
KCNTATCATQRLANFLVRSGNLFGAILSPTNVGSNTY (listed as Ursus maritimus) [polar bear IAPP],–,–,significant ability to prevent fiber formation,–,–,–,not capable of protecting RIN-m cells from the toxic effects of hIAPP,–,able to inhibit such aggregation
